Laboratory results published in US20240010720A1 (IOMX THERAPEUTICS, published 2024).

T1: His-tagged extracellular domain (ECD) of human IGSF11 (VSIG3) (human, UniProt Q5DX21 23-241)
T1 construct: partly bought (SinoBiological 13094-H08H); also called IGSF11-HIS; HIS-IGSF11; not shown: HIS6 tag
T1 sequence: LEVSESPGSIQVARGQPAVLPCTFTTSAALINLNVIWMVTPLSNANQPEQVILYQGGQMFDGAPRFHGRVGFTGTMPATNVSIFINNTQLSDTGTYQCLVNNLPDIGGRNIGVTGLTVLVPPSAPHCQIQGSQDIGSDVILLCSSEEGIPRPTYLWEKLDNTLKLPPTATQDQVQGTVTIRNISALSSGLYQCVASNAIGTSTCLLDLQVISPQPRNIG

T2: recombinant murine IGSF11 extracellular domain (ECD) (mouse, UniProt P0C673 23-240, biotinylated)
T2 construct: also called Mouse IGSF11; murine ECD-IGSF11
T2 sequence: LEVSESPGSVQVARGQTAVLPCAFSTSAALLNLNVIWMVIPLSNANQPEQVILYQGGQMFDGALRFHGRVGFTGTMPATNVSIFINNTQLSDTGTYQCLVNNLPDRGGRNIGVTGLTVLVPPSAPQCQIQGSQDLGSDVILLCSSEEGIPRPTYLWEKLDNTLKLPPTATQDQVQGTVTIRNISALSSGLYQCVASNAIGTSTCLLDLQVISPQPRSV

T3: IGSF11 ECD fused to murine-Fc (human; mouse, UniProt Q5DX21 23-241)
T3 construct: also called Fc-fusion IGSF11 ECD; full-length ECD of IGSF11; not shown: murine Fc
T3 sequence: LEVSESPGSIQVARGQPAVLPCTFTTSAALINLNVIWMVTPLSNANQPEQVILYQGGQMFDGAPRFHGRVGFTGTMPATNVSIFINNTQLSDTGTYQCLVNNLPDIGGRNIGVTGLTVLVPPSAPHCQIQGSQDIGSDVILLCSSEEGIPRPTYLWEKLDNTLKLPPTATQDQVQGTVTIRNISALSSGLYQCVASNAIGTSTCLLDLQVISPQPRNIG


Each binder was assayed against T1, His-tagged extracellular domain (ECD) … (assay: ELISA EC50 grade, IgG1).

Row | Binder | EC50
1 | A-009 (IgG1 format) (antibody, V domains shown, human IgG1 format) VH: QVQLVQSGAEVKKPGSSVKVSCKASGGTFSSYAISWVRQAPGQGLEWMGGIIPIFGTANYAQKFQGRVTITADESTSTAYMELSSLRSEDTAVYYCARGRGFGELYFDYWGQGTLVTVSS VL: ETTLTQSPATLSVSPGERATLSCRASQGVRSNIAWYQQKPGQAPRLLIYDSSTRATGIPARFSGSGSGTEFTLTISSLQSEDFAVYSCQQYKNWPRTFGQGTKVEIK | 0.05 to 1 nM
2 | A-008 (IgG1 format) (antibody, V domains shown, human IgG1 format) VH: QLQLQESGPGLVKPSETLSLTCTVSGGSISSSGYYWGWIRQPPGKGLEWIGSIYYSGSTYYNPSLKSRVTISVDTSKNQFSLKLSSVTAADTAVYYCARHRVRFGEFDAFDIWGQGTMVTVSS VL: QAVLTQPPSVSGAPGERVTLSCTGTSSNVGADFDVHWYQQFPGTAPRLLIFGSDNRPSGVPDRFSGSKSGTSASLAITGLQVEDEADYYCQAYDVRLSGWVFGGGTKLTVL | 0.02 to 0.05 nM
3 | A-016 (IgG1 format) (antibody, V domains shown, human IgG1 format) VH: QVQLQESGAEVKKPGASVKVSCKASGYTFTGYYMHWVRQAPGQGLEWMGGIIPIFGTANYAQKFQGRVTITADESTSTAYMELSSLRSEDTAVYYCAGAGMELTRSGAYYYYGMDVWGQGTTVTVSS VL: QSALTQPASVSGSPGQSITISCTGTSSDIGGYTFVSWYQQHPGKAPKVMIHDVNNRPSGISNRFSGSKSGNTASLTISGLQAEDEADYYCSSVTSTNTYVFGTGTKVTVL | < 0.02 nM
4 | A-029 (IgG1 format) (antibody, V domains shown, human IgG1 format) VH: QVQLVQSGAEVKKPGSSVKVSCKASGGTFSSYAISWVRQAPGQGLEWMGGIIPIFGTANYAQKFQGRVTITADESTGTAYMELSSLRSEDTAVYYCARSYYYYYGMDVWGQGTTVTVSS VL: not shown | 0.05 to 1 nM

These binders were tested against T2, recombinant murine IGSF11 extracellular … (assay: ELISA, Fab).

Row | Binder | A450
5 | C-024 (Fab format) (Fab, V domains shown, Fab in E. coli lysate) VH: not shown VL: SYELTQPPSVSVSPGQTASITCSGDKLGDKYASWYQQKPGQSPVLVIYQDSKRPSGIPERFSGSNSGNTATLTISGTQAEDEADYYCLASHRLTLNYVFGGGTKLTVL | < 1
6 | C-020 (Fab format) (Fab, V domains shown, Fab in E. coli lysate) VH: not shown VL: SYELTQPPSVSVSPGQTASITCSGDKLGDKYASWYQQKPGQSPVLVIYQDSKRPSGIPERFSGSNSGNTATLTISGTQAEDEADYYCLSYLARSGSVVFGGGTKLTVL | < 1
7 | C-016 (Fab format) (Fab, V domains shown, Fab in E. coli lysate) VH: not shown VL: ASVLTQPPSVSAAPGQKVTISCSGSSSNIGNNYVSWYQQLPGTAPKLLIYDNNKRPSGIPDRFSGSKSGTSATLGITGLQAEDEADYYCHLYTEAESHWVFGGGTKLTVL | < 1
8 | C-017 (Fab format) (Fab, V domains shown, Fab in E. coli lysate) VH: not shown VL: DIQMTQSPSSLSASVGDRVTITCRASQSISSYLNWYQQKPGKAPKLLIYAASSLQSGVPSRFSGSGSGTDFTLTISSLQPEDFATYYCQQHRYIPPWTFGQGTKVEIK | < 1

These binders were tested against T4, Streptavidin (UniProt P22629 37-163, limits assumed) (assay: ELISA, Fab).
T4 construct: also called negative antigen; irrelevant antigen
T4 sequence (P22629 37-163 limits assumed): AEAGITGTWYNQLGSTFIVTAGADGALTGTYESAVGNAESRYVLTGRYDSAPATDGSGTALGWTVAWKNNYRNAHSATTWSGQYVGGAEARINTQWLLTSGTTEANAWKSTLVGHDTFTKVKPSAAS

Row | Binder | A450
9 | C-005 (Fab format) (Fab, V domains shown, Fab in E. coli lysate) VH: not shown VL: SYELTQPPSVSVSPGQTASITCSGDKLGDKYASWYQQKPGQSPVLVIYQDSKRPSGIPERFSGSNSGNTATLTISGTQAEDEADYYCHSYTGKPSQVVFGGGTKLTVL | < 0.1
10 | C-009 (Fab format) (Fab, V domains shown, Fab in E. coli lysate) VH: not shown VL: SYELTQPPSVSVSPGQTASITCSGDKLGDKYASWYQQKPGQSPVLVIYQDSKRPSGIPERFSGSNSGNTATLTISGTQAEDEADYYCQSYSGSSTLHVFGGGTKLTVL | < 0.1
11 | C-007 (Fab format) (Fab, V domains shown, Fab in E. coli lysate) VH: not shown VL: ASVLTQPPSVSAAPGQKVTISCSGSSSNIGNNYVSWYQQLPGTAPKLLIYDNNKRPSGIPDRFSGSKSGTSATLGITGLQAEDEADYYCQLYEEEHSTWVFGGGTKLTVL | < 0.1
12 | C-026 (Fab format) (Fab, V domains shown, Fab in E. coli lysate) VH: not shown VL: ASVLTQPPSVSAAPGQKVTISCSGSSSNIGNNYVSWYQQLPGTAPKLLIYDNNKRPSGIPDRFSGSKSGTSATLGITGLQAEDEADYYCASYSSETSGWVFGGGTKLTVL | < 0.1
13 | C-016 (Fab format) (Fab, V domains shown, Fab in E. coli lysate) VH: not shown VL: ASVLTQPPSVSAAPGQKVTISCSGSSSNIGNNYVSWYQQLPGTAPKLLIYDNNKRPSGIPDRFSGSKSGTSATLGITGLQAEDEADYYCHLYTEAESHWVFGGGTKLTVL | < 0.1
14 | C-001 (Fab format) (Fab, V domains shown, Fab in E. coli lysate) VH: not shown VL: ASVLTQPPSVSAAPGQKVTISCSGSSSNIGNNYVSWYQQLPGTAPKLLIYDNNKRPSGIPDRFSGSKSGTSATLGITGLQAEDEADYYCGSWLEERSQYVFGGGTKLTVL | < 0.1
15 | C-008 (Fab format) (Fab, V domains shown, Fab in E. coli lysate) VH: EVQLLESGGGLVQPGGSLRLSCAASGFTFSSYAMSWVRQAPGKGLEWVSAISGSGGSTYYADSVKGRFTISRDNSKNTLYLQMNSLRAEDTAVYYCTTDNGHNRDWGQGTLVTVSS VL: ASVLTQPPSVSAAPGQKVTISCSGSSSNIGNNYVSWYQQLPGTAPKLLIYDNNKRPSGIPDRFSGSKSGTSATLGITGLQAEDEADYYCGTWTRSSGVFGGGTKLTVL | < 0.1
16 | C-022 (Fab format) (Fab, V domains shown, Fab in E. coli lysate) VH: EVQLLESGGGLVQPGGSLRLSCAASGFTFSSYAMSWVRQAPGKGLEWVSAISGSGGSTYYADSVKGRFTISRDNSKNTLYLQMNSLRAEDTAAYYCARMAAGASWGTFDYWSQGTLVTVSS VL: DIQMTQSPSSLSASVGDRVTITCRASQSISSYLNWYQQKPGKAPKLLIYAASSLQSGVPSRFSGSGSGTDFTLTISSLQPEDFATYYCQQRSGSPLTFGQGTKVEIK | < 0.1

Each binder was assayed against T3, IGSF11 ECD fused to murine-Fc (assay: ELISA, IgG).
From the text: Expi293 cells (ThermoFisher) were transiently transfected with DNA sequences encoding the applicable IGSF11 domain-mFc fusions according to the manufacturer's instructions, and cultured under conditions suitable to the IGSF11 domain fusion. Cell supernatants were harvested 5 days post transfection and the expressed Fc-protein purified via Protein A affinity chromatography (GE Healthcare). IGSF11 domain Fc-fusion proteins were re-buffered into PBS pH7.4. […] The surface was blocked with 2% (w/v) skim milk powder in PBST. After three wash cycles with PBST, a dilution series of IgG-format ABPs was transferred to the immobilized the Fc-fusion IGSF11 ECD or the IGSF11 domains and incubated for 1 h. After removing all unbound antibodies by 3 wash cycles with PBST, bound IgG ABPs were detected with a goat anti-human IgG antibody conjugated with horseradish peroxidase. After three wash cycles with PBST the ELISA was developed with TMB substrate.

Row | Binder | EC50
17 | C-010 (IgG1 format) (antibody, V domains shown, wildtype human IgG1 and kappa or lambda constant regions) VH: QVQLVQSGAEVKKPGSSVKVSCKASGGTFSSYAISWVRQAPGQGLEWMGGIIPIFGTANYAQKFQGRVTITADESTSTAYMELSSLRSEDTAVYYCARGYGEYYPAFDVWGQGTLVTVSS VL: SYELTQPPSVSVSPGQTASITCSGDKLGDKYASWYQQKPGQSPVLVIYQDSKRPSGIPERFSGSNSGNTATLTISGTQAEDEADYYCASYAHTHSTWVFGGGTKLTVL | 20 to 100 nM
18 | C-015 (IgG1 format) (antibody, V domains shown, wildtype human IgG1 and kappa or lambda constant regions) VH: not shown VL: SYELTQPPSVSVSPGQTASITCSGDKLGDKYASWYQQKPGQSPVLVIYQDSKRPSGIPERFSGSNSGNTATLTISGTQAEDEADYYCSSTGTAHTLAVFGGGTKLTVL | 20 to 100 nM
19 | C-009 (IgG1 format) (antibody, V domains shown, wildtype human IgG1 and kappa or lambda constant regions) VH: not shown VL: SYELTQPPSVSVSPGQTASITCSGDKLGDKYASWYQQKPGQSPVLVIYQDSKRPSGIPERFSGSNSGNTATLTISGTQAEDEADYYCQSYSGSSTLHVFGGGTKLTVL | 1 to 20 nM
20 | C-024 (IgG1 format) (antibody, V domains shown, wildtype human IgG1 and kappa or lambda constant regions) VH: not shown VL: SYELTQPPSVSVSPGQTASITCSGDKLGDKYASWYQQKPGQSPVLVIYQDSKRPSGIPERFSGSNSGNTATLTISGTQAEDEADYYCLASHRLTLNYVFGGGTKLTVL | 1 to 20 nM
21 | C-018 (IgG1 format) (antibody, V domains shown, wildtype human IgG1 and kappa or lambda constant regions) VH: not shown VL: SYELTQPPSVSVSPGQTASITCSGDKLGDKYASWYQQKPGQSPVLVIYQDSKRPSGIPERFSGSNSGNTATLTISGTQAEDEADYYCQAWSTSTHSWVFGGGTKLTVL | 1 to 20 nM
22 | C-013 (IgG1 format) (antibody, V domains shown, wildtype human IgG1 and kappa or lambda constant regions) VH: not shown VL: SYELTQPPSVSVSPGQTASITCSGDKLGDKYASWYQQKPGQSPVLVIYQDSKRPSGIPERFSGSNSGNTATLTISGTQAEDEADYYCASYLHTPKQFVFGGGTKLTVL | 1 to 20 nM
23 | C-023 (IgG1 format) (antibody, V domains shown, wildtype human IgG1 and kappa or lambda constant regions) VH: not shown VL: SYELTQPPSVSVSPGQTASITCSGDKLGDKYASWYQQKPGQSPVLVIYQDSKRPSGIPERFSGSNSGNTATLTISGTQAEDEADYYCHTWTHHSLAVVFGGGTKLTVL | < 1 nM
24 | C-026 (IgG1 format) (antibody, V domains shown, wildtype human IgG1 and kappa or lambda constant regions) VH: not shown VL: ASVLTQPPSVSAAPGQKVTISCSGSSSNIGNNYVSWYQQLPGTAPKLLIYDNNKRPSGIPDRFSGSKSGTSATLGITGLQAEDEADYYCASYSSETSGWVFGGGTKLTVL | 1 to 20 nM
25 | C-002 (IgG1 format) (antibody, V domains shown, wildtype human IgG1 and kappa or lambda constant regions) VH: not shown VL: ASVLTQPPSVSAAPGQKVTISCSGSSSNIGNNYVSWYQQLPGTAPKLLIYDNNKRPSGIPDRFSGSKSGTSATLGITGLQAEDEADYYCLSYTTSEHHLVFGGGTKLTVL | 1 to 20 nM
26 | C-008 (IgG1 format) (antibody, V domains shown, wildtype human IgG1 and kappa or lambda constant regions) VH: EVQLLESGGGLVQPGGSLRLSCAASGFTFSSYAMSWVRQAPGKGLEWVSAISGSGGSTYYADSVKGRFTISRDNSKNTLYLQMNSLRAEDTAVYYCTTDNGHNRDWGQGTLVTVSS VL: ASVLTQPPSVSAAPGQKVTISCSGSSSNIGNNYVSWYQQLPGTAPKLLIYDNNKRPSGIPDRFSGSKSGTSATLGITGLQAEDEADYYCGTWTRSSGVFGGGTKLTVL | < 1 nM
27 | C-006 (IgG1 format) (antibody, V domains shown, wildtype human IgG1 and kappa or lambda constant regions) VH: not shown VL: DIQMTQSPSSLSASVGDRVTITCRASQSISSYLNWYQQKPGKAPKLLIYAASSLQSGVPSRFSGSGSGTDFTLTISSLQPEDFATYYCQQSHQSPPITFGQGTKVEIK | 1 to 20 nM
28 | C-022 (IgG1 format) (antibody, V domains shown, wildtype human IgG1 and kappa or lambda constant regions) VH: EVQLLESGGGLVQPGGSLRLSCAASGFTFSSYAMSWVRQAPGKGLEWVSAISGSGGSTYYADSVKGRFTISRDNSKNTLYLQMNSLRAEDTAAYYCARMAAGASWGTFDYWSQGTLVTVSS VL: DIQMTQSPSSLSASVGDRVTITCRASQSISSYLNWYQQKPGKAPKLLIYAASSLQSGVPSRFSGSGSGTDFTLTISSLQPEDFATYYCQQRSGSPLTFGQGTKVEIK | 1 to 20 nM
